Test results: paper PMC11341029 (PLOS Pathogens, 2024)

T1: NPC1-10×His-Flag (human, UniProt O15118 23-1278)
T1 construct: also called purified NPC1-Flag; full-length NPC1 protein
T1 sequence (looked up): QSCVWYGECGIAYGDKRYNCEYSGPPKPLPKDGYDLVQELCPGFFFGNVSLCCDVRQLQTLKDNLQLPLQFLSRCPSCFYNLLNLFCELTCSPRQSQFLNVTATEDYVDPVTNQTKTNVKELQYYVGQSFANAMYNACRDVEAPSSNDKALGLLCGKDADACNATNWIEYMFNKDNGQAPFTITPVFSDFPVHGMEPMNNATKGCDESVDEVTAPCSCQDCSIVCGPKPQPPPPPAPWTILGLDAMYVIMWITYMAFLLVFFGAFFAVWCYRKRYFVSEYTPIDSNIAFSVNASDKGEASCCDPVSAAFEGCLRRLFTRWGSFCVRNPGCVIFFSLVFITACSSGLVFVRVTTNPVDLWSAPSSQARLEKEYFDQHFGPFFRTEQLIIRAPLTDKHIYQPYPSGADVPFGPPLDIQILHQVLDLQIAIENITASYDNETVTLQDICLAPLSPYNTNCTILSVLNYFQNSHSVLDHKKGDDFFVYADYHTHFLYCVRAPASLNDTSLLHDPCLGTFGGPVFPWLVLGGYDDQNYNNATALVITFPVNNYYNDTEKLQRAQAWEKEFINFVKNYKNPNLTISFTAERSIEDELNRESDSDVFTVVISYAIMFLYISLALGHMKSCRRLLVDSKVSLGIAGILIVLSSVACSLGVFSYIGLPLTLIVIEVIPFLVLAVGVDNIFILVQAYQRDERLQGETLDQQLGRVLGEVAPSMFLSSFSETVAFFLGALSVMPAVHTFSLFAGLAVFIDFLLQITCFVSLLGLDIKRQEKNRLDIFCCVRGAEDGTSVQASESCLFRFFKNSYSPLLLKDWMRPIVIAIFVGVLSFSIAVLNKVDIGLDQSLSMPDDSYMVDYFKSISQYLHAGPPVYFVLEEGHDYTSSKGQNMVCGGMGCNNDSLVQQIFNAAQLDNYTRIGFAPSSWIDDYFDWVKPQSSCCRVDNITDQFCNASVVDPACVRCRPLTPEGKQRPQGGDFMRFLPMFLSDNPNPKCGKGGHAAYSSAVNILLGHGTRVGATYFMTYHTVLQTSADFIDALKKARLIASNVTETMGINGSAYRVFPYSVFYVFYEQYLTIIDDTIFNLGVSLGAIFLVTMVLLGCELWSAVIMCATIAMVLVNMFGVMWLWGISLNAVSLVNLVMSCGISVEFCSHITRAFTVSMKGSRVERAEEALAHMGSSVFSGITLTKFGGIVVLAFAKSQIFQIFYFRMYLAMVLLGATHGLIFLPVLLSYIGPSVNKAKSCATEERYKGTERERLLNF

T2: SLC39A9 (Homo sapiens, UniProt Q9NUM3)
T2 chain: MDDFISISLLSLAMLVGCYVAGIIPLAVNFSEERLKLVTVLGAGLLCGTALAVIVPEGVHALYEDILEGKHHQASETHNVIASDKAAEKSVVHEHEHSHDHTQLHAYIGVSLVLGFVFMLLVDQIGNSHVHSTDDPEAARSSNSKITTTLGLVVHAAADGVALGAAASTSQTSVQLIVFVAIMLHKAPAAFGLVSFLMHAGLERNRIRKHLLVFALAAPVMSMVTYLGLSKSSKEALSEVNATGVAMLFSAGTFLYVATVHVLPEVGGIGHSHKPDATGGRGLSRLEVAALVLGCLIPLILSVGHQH

B1: primed EBOV GP (GPcl) (domain or fragment)
chain 1: IPLGVIHNSTLQVSDVDKLVCRDKLSSTNQLRSVGLNLEGNGVATDVPSATKRWGFRSGVPPKVVNYEAGEWAENCYNLEIKKPDGSECLPAAPDGIRGFPRCRYVHKVSGTGPCAGDFAFHKEGAFFLYDRLASTVIYRGTTFAEGVVAFLILPQ
chain 2: EAIVNAQPKCNPNLHYWTTQDEGAAIGLAWIPYFGPAAEGIYIEGLMHNQDGLICGLRQLANETTQALQLFLRATTELRTFSILNRKAIDFLLQRWGGTCHILGPDCCIEPHDWTKNITDKIDQIIHDFVDKTLPDQGDNDNWWTGWRQ
B2: EBOV GP (protein)
chain: IPLGVIHNSTLQVSDVDKLVCRDKLSSTNQLRSVGLNLEGNGVATDVPSATKRWGFRSGVPPKVVNYEAGEWAENCYNLEIKKPDGSECLPAAPDGIRGFPRCRYVHKVSGTGPCAGDFAFHKEGAFFLYDRLASTVIYRGTTFAEGVVAFLILPQAKKDFFSSHPLREPVNATEDPSSGYYSTTIRYQATGFGTNETEYLFEVDNLTYVQLESRFTPQFLLQLNETIYTSGKRSNTTGKLIWKVNPEIDTTIGEWAFWETKKNLTRKIRSEELSFTVVSNGAKNISGQSPARTSSDPGTNTTTEDHKIMASENSSAMVQVHSQGREAAVSHLTTLATISTSPQSLTTKPGPDNSTHNTPVYKLDISEATQVEQHHRRTDNDSTASDTPSATTAAGPPKAENTNTSKSTDFLDPATTTSPQNHSETAGNNNTHHQDTGEESASSGKLGLITNTIAGVAGLITGGRRTRREAIVNAQPKCNPNLHYWTTQDEGAAIGLAWIPYFGPAAEGIYIEGLMHNQDGLICGLRQLANETTQALQLFLRATTELRTFSILNRKAIDFLLQRWGGTCHILGPDCCIEPHDWTKNITDKIDQIIHDFVDKTLPDQGDNDNWWTGWRQWIPAGIGVTGVIIAVIALFCICKFVF

How the values were obtained:
NPC1-10×His-Flag = biological target: T1, NPC1-10×His-Flag; test: SPR; details: both partners purified
SLC39A9 = biological target: T2, SLC39A9; test: SPR

Row | Binder | Kd (NPC1-10×His-Flag) [µM] | Kd (SLC39A9) [µM]
1 | B1 | 18.5 | –
2 | B2 | – | 3
